This experiment deals with T1, HLA-B57(A46E/V97R).β2m IgG4 Fc fusion protein dimer associated with β2m (human; homo sapiens).
T1 construct: also called iosH2; losH2
The experiment is described as follows: ELISA, biotinylated LILRB2 on streptavidin plate. From the text:
The inventors went on to dissect the immunological properties most relevant to tumor immunity associated with HLA-B57^{(A46E/V97R)} formats, all lacking association with a peptide epitope associated with the peptide-binding groove of the HLA class I domain of the fusion protein. The affinity of interaction of LILRB2 with wildtype HLA-B57 fusion protein (dimers) lacking β2m, HLA-B57^{(A46E/V97R)} fusion protein (dimers) lacking β2m, and HLA-B57^{(A46E/V97R)} fusion protein dimers still bound to β2m was measured using the enzyme-linked immunosorbent assay (ELISA) method. Flat bottom Pierce™ Streptavidin coated high binding capacity 96 well plates (Pierce #15500) were coated with 50 μl of c-terminally biotinylated antigen molecules (LILRB2, BPS Bioscience #100335) immobilized at a final concentration of 5 μg/ml in PBS buffer. PBS and IgG isotype were used as negative controls. A serial dilution of HLA-B57, or HLA-B57^{(A46E/V97R)} lacking β2m, and HLA-B57^{(A46E/V97R)}.β2m (eight concentration points: 10, 2.5, 1, 0.25, 0.1, 0.025, 0.01, 0.0025 μg/ml) was applied (50 μl) in duplicates. An APC conjugated goat anti-human IgG antibody (Jackson Immuno Research #109-135-098) with 1:100 dilution in TBS (50 μl) was used for detection. Finally, 50 μl TBS in each well was added and a fluorescence scan was performed with APC excitation and emission wavelengths of 650 nm & 660 nm, respectively. […]
(ELISA stands for enzyme-linked immunosorbent assay.)

B1: LILRB2, c-terminally biotinylated (BPS Bioscience #100335) (receptor, UniProt Q8N423 22-458, looked up)
chain: QTGTIPKPTLWAEPDSVITQGSPVTLSCQGSLEAQEYRLYREKKSASWITRIRPELVKNGQFHIPSITWEHTGRYGCQYYSRARWSELSDPLVLVMTGAYPKPTLSAQPSPVVTSGGRVTLQCESQVAFGGFILCKEGEDEHPQCLNSQPHARGSSRAIFSVGPVSPNRRWSHRCYGYDLNSPYVWSSPSDLLELLVPGVSKKPSLSVQPGPVMAPGESLTLQCVSDVGYDRFVLYKEGERDLRQLPGRQPQAGLSQANFTLGPVSRSYGGQYRCYGAHNLSSECSAPSDPLDILITGQIRGTPFISVQPGPTVASGENVTLLCQSWRQFHTFLLTKAGAADAPLRLRSIHEYPKYQAEFPMSPVTSAHAGTYRCYGSLNSDPYLLSHPSEPLELVVSGPSMGSSPPPTGPISTPGPEDQPLTPTGSDPQSGLGRHL
modifications: C-terminal biotin
notes: Bought reagent immobilised on streptavidin plates
Take B1: the binding result is given as “binds”.

The values are drawn from US20250163129A1 (IMMUNOS THERAPEUTICS, published 2025).
